Laboratory results published in article doi:10.1101/2024.09.27.615457 (bioRxiv, 2024).

Target: T1, MBP-tagged bHLH107 (Arabidopsis, UniProt Q9LET0 1-230)
T1 sequence (looked up): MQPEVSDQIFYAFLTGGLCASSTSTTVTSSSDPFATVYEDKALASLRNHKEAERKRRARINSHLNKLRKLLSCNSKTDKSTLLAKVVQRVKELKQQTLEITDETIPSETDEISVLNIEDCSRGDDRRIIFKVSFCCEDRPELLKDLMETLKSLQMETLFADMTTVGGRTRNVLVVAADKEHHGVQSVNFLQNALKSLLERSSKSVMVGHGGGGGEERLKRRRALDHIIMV
Test: pull-down

binding result: binds
B1: His-tagged HY5 (natural protein, Arabidopsis, UniProt O24646 1-168, looked up)
chain: MQEQATSSLAASSLPSSSERSSSSAPHLEIKEGIESDEEIRRVPEFGGEAVGKETSGRESGSATGQERTQATVGESQRKRGRTPAEKENKRLKRLLRNRVSAQQARERKKAYLSELENRVKDLENKNSELEERLSTLQNENQMLRHILKNTTGNKRGGGGGSNADASL
